Assay results reported in US20130058902A1, “DENDRITIC CELL SUBSETS FOR GENERATING INDUCED TOLEROGENIC DENDRITIC CELLS AND RELATED COMPOSITIONS AND METHODS” (Selecta Biosciences, Inc., priority 2011, published 2013).

Tested on: DCs in the spleen
Assay: Expansion of spleen DCs in donor mice inoculated with FLT-3 ligand expressing melanoma cells
Format: in vivo, C57BL/6 mice
Conditions: spleen of syngeneic donor mice inoculated 10 days earlier with FLT-3 ligand expressing melanoma cells
Description: For each treatment day syngeneic donor mice were inoculated 10 days earlier with Fms-like tyrosine kinase 3 (FLT-3) ligand expressing melanoma cells s.s. (performed on days−10, 4, 18 in donor C57BL/6 age-matched mice). Flt3 ligand is a growth factor for DCs and allows for greater total number of DCs to be present in the spleen. This increased the number of DCs more than 10-fold and allowed for more cells to be available for in vitro treatment and in vivo administration.

B1: Flt3 ligand: growth factor for DCs, delivered by FLT-3 ligand expressing melanoma cells inoculated into donor mice (protein, UniProt P49772 27-232, looked up)
Fms-related tyrosine kinase 3 …: GTPDCYFSHSPISSNFKVKFRELTDHLLKDYPVTVAVNLQDEKHCKALWSLFLAQRWIEQLKTVAGSKMQTLLEDVNTEIHFVTSCTFQPLPECLRFVQTNISHLLKDTCTQLLALKPCIGKACQNFSRCLEVQCQPDSSTLLPPRSPIALEATELPEPRPRQLLLLLLLLLPLTLVLLAAAWGLRWQRARRRGELHPGVPLPSHP
For B1, which “increase of the number of DCs” value is on record?
Its value is “more than 10 fold”.
